US11162087B2, “Beta-glucosidase, enzyme composition including same, and method for manufacturing sugar solution using same” (RIKEN, priority 2017, dated 2021)

B1: partially purified β-glucosidase: His-tag purified elution fraction of SEQ ID NO: 1 β-glucosidase from E. coli cell-free extract, buffer exchanged (Example 7) (protein, listed as Pseudotrichonympha grassii)
chain: QIEGLINVMTLEEKVGQMAQLAIDLFIDVPTDTVIPEAARKGIIDYKIGSILNTYGGVSHSKEVWTYINAEFYKYTEETDLKIPILYGLDSIHGANFVNNFTSFPQQIGMAATFNPSLLKEGSRISAYETRAASVGWVFSPVMDLGLDPRWPRIWEGFGEDPYLSSQFGIASVHGFQGKDPNLIDEFHVAACAKHYLAYSNPFTGKDRTPAILSDIFIREYHLPSFKAAVDAGVASVMVNSGLINGIPTHMNHYLLTTVLKEELGFQGVIVTDWQDIENIHTRDHLAPTQKDAVKLAINAGIDMSMIPYNYDFIDYLIELVHEGEVSIDRINDAVRRILKMKAKMNLWDLPVTKSEDYPEFGSEAHANASYTAASESITLLKNENSTLPLAKNTKVLVVGPNSNSHRSLNGGWSYSWQGNAGVQYAVQYNTIYQAIQKVNGEENTVFSQGVRYIETGNYYEDEEVNISESVALARDVDYIILALGENTYTEKPGDLSDLEISQNQIDLAKALASTGKPIILVLNQGRPRIISRIEQLVSAILWIYWPGNYGGDALADILFGDVNPSGKLPVTYPRYSASLITYWHKYAEEQVGQPGAYDYSSDYNPLWEFGYGLSYTTFNYSNLSVPSTSGMRDVIPVSVLVKNTGEVAGKEVVLLFTSDLYASLAPDVKRLRKFTKILLQPGEEQLVSFNLTSSDLSFIDAQSRRVTETGDFEIKIGGLKGKVTLT
modifications: His-tag
B2: β-glucosidase of the present invention (SEQ ID NO: 1): Polypeptide of SEQ ID NO: 1 from Pseudotrichonympha grassii; in Tables 12/13 measured as the Example 10 composition with Trichoderma cellulase (protein, listed as Pseudotrichonympha grassii)
chain: B1 chain
B3: Comparative Example 1: β-glucosidase derived from the genus Aspergillus filamentous fungus: Aspergillus β-glucosidase (SEQ ID NO: 10) expressed in Trichoderma reesei; measured as enzyme composition … (protein, listed as Aspergillus aculeatus)
chain: DELAFSPPFYPSPWANGQGEWAEAYQRAVAIVSQMTLDEKVNLTTGTGWELEKCVGQTGGVPRLNIGGMCLQDSPLGIRDSDYNSAFPAGVNVAATWDKNLAYLRGQAMGQEFSDKGIDVQLGPAAGPLGRSPDGGRNWEGFSPDPALTGVLFAETIKGIQDAGVVATAKHYILNEQEHFRQVAEAAGYGFNISDTISSNVDDKTIHEMYLWPFADAVRAGVGAIMCSYNQINNSYGCQNSYTLNKLLKAELGFQGFVMSDWGAHHSGVGSALAGLDMSMPGDITFDSATSFWGTNLTIAVLNGTVPQWRVDDMAVRIMAAYYKVGRDRLYQPPNFSSWTRDEYGFKYFYPQEGPYEKVNHFVNVQRNHSEVIRKLGADSTVLLKNNNALPLTGKERKVAILGEDAGSNSYGANGCSDRGCDNGTLAMAWGSGTAEFPYLVTPEQAIQAEVLKHKGSVYAITDNWALSQVETLAKQASVSLVFVNSDAGEGYISVDGNEGDRNNLTLWKNGDNLIKAAANNCNNTIVVIHSVGPVLVDEWYDHPNVTAILWAGLPGQESGNSLADVLYGRVNPGAKSPFTWGKTREAYGDYLVRELNNGNGAPQDDFSEGVFIDYRGFDKRNETPIYEFGHGLSYTTFNYSGLHIQVLNASSNAQVATETGAAPTFGQVGNASDYVYPEGLTRISKFIYPWLNSTDLKASSGDPYYGVDTAEHVPEGATDGSPQPVLPAGGGSGGNPRLYDELIRVSVTVKNTGRVAGDAVPQLYVSLGGPNEPKVVLRKFDRLTLKPSEETVWTTTLTRRDLSNWDVAAQDWVITSYPKKVHVGSSSRQLPLHAALPKVQ
notes: measured as enzyme composition with Trichoderma cellulase
B4: Mutant 1: His-tagged polypeptide of SEQ ID NO: 6, 88% identity with SEQ ID NO: 1; tested as cell-free extract of transformed E. coli (protein)
chain: QIEGLINVMTLEEKVGQMAQLAIDLFIDVPTDTVIPEAARKGIIDYKIGSILNTYGGVSHSKEVWTYINAEFYKYTEETDLKIPILYGLDSIHGANFVNNFTSFPQQIGMAATFNPSLLKEGSRISAYETRAASVGWVFSPVMDLGLDPRWPRIWEGFGEDPYLSSQFGIASVHGFQGKDPNLIDEFHVAACAKHYLAYSNPFTGKDRTPAILSDIFIREYHLPSFKAAVDAGVASVMVNSGLINGIPTHMNHYLLTTVLKEELGFQGVIVTDWQDIENIHTRDHLAPTQKDAVKLAINAGIDMSMIPYNYDFIDYLIELVHEGEVSIDRINDAVRRILKMKAKMNLWDLPVTKSEDYPEFGSEAHANASYTAASESITLLKNENSTLPLAKNTKVLVVGPNSNSHRSLNGGWSYSWQGNAGVQYAVQYNTIYQAIQKVNGEENTVFSQGVRYIETGNYYEDEEVNISESVALARDVDYIILALGENTYTEKPGDLSDLEISQNQIDLAKALASTGKPIILVLNQGRPRIISRIEQLVSAILWIYWPGNYGGDALADILFGDVNPSGKLPVTYPRYSASLNTRIVSGGSDSFSEGLFIDYKHFDDANITPRYEFGYGLSYTKFNYSRLSVLSTAKSGPATGAVVPGGPSDLFQNVATVTVDIANSGQVTGAEVAQLYITYPSSAPRTPPKQLRGFAKLNLTPGQSGTATFNIRRRDLSYWDTASQKWVVPSGSFGISVGASSRDIRLTSTLSVA
modifications: His tag; amino acid sequence having 88% sequence identity with amino acid sequence of SEQ ID NO 1
notes: tested as cell-free extract of transformed E. coli

What was measured:
[1] = β-glucosidase activity measurement with pNP-Glc; format: biochemical
Description: In the present invention, “β-glucosidase” means an enzyme that catalyzes a reaction for hydrolysis degradation of a sugar β-glucoside bond. In the present invention, a method for measuring a β-glucosidase activity utilizes a reaction using p-nitrophenyl-β-D-glucopyranoside (pNP-Glc) as a substrate. Specifically, an enzyme liquid is added to a substrate solution prepared by dissolving pNP-Glc in 50 mM acetic acid-sodium acetate buffer solution (pH 5.0) and reacted at 30° C. for 10 minutes; and the reaction is stopped by well mixing with 2M sodium carbonate in an amount equivalent to one-tenth of a reaction system volume to measure an increase of the absorbance at 405 nm. When p-nitrophenol is released and the absorbance at 405 nm is increased after the above reaction, it is determined that the β-glucosidase activity is present.
10 μL of an enzyme diluted solution was added to and reacted with 90 μL of 50 mM acetic acid buffer containing 1 mM p-nitrophenyl-β-glucopyranoside (manufactured by Sigma-Aldrich Japan) at 30° C. for 10 minutes. Thereafter, 10 μL of 2M sodium carbonate was added and well mixed to stop the reaction, and an increase of absorbance at 405 nm was measured. The activity to release 1 μmol of p-nitrophenol per minute was defined as 1 U. For a blank, 10 μL of 2M sodium carbonate was added to and well mixed with 90 μL of 50 mM sodium acetate buffer containing 1 mM p-nitrophenyl-β-glucopyranoside, and thereafter, 10 μL of an enzyme diluted solution was added to cause a reaction at 30° C. for 30 minutes. Thereafter, an increase of absorbance at 405 nm was measured. At this time, the enzyme liquid was diluted so as not to exceed an absorbance at 405 nm of 1. In addition, a calibration curve was created based on absorbances measured by preparing p-nitrophenol solutions at concentrations of 0.1 mM, 0.2 mM, 1 mM and 2 mM; using 10 μL of them instead of an enzyme diluted solution; and adding and well mixing 10 μL of 2M sodium carbonate for color development.

[2] = Inhibitory action of glucose on the β-glucosidase activity; format: biochemical; conditions: 1 mM pNP-Glc, 30° C., 100 minutes
Description: The β-glucosidase derived from a protist of the genus Pseudotrichonympha of the present invention is preferably less likely to suffer from inhibition by glucose on the 3-glucosidase activity. Specifically, when the β-glucosidase activity in the absence of glucose is taken unity, the β-glucosidase activity under a condition of a glucose concentration of 8 g/L (or in the presence of 8 g/L glucose) is preferably 0.5 or more, more preferably 0.6 or more, more preferably 0.7 or more, more preferably 0.8 or more, more preferably 0.9 or more, more preferably 1.0 or more, more preferably 1.1 or more, more preferably 1.2 or more, more preferably 1.3 or more, and in particular preferably 1.4 or more. Further, in addition to the β-glucosidase activity under the condition of the glucose concentration of 8 g/L, when the β-glucosidase activity in the absence of glucose is taken as unity, the β-glucosidase activity under a condition of a glucose concentration of 20 g/L (or in the presence of 20 g/L glucose) is preferably 0.5 or more, more preferably 0.6 or more, and in particular preferably 0.7 or more. The method used herein for measuring the β-glucosidase activity is the same as the above-described method except that 8 g/L or 20 g/L of glucose is added at the time of measuring; and results obtained thereby are used.
An enzyme solution was added to a mixture solution containing 1 mM p-nitrophenyl-β-glucopyranoside (manufactured by Sigma-Aldrich Japan), 50 mM acetic acid buffer and 0, 4, 8 or 20 g/L glucose such that the total amount of the reaction solution became 100 μL, causing a reaction at 30° C. for 100 minutes. Thereafter, 10 μL of 2M sodium carbonate was added and well mixed to stop the reaction, and an increase of absorbance at 405 nm was measured. The activity to release 1 μmol of p-nitrophenol per minute was defined as 1 U. For a blank, 10 μL of 2M sodium carbonate was added to an amount, equivalent to that of the above mixture solution for the reaction solution before addition of the enzyme solution, of a mixture solution containing 1 mM p-nitrophenyl-β-glucopyranoside, 50 mM sodium acetate buffer and 0, 4, 8 or 20 g/L glucose, and mixed well; and then, the enzyme solution was added such that the total solution amount of the blank became 110 μL, causing a reaction at 30° C. for 30 minutes. Thereafter, an increase of absorbance at 405 nm was measured.
In accordance with Reference Example 8, the inhibitory action of glucose on the β-glucosidase activity was measured in enzyme compositions: containing the β-glucosidase and the genus Trichoderma filamentous fungus-derived cellulase prepared in Example 10; and the cell-free extract of β-glucosidase mutant gene transformed E. coli prepared in Example 5. For a comparative control, only the genus Trichoderma filamentous fungus-derived cellulase was used, and the inhibitory action of glucose on the β-glucosidase activity was measured in the same manner. […] That is, both of the enzyme composition containing the β-glucosidase of the present invention and the genus Trichoderma filamentous fungus-derived cellulase, and the cell-free extract of β-glucosidase mutant gene transformed E. coli were less likely to suffer from inhibition on the β-glucosidase activity by glucose, compared to only the genus Trichoderma filamentous fungus-derived cellulase, and the enzyme composition of Comparative Example 1 containing the genus Aspergillus filamentous fungus-derived β-glucosidase and the genus Trichoderma filamentous fungus-derived cellulase.

Row | Molecule | β-glucosidase activity per 1 mg of protein ([1]; 1 mM pNP-Glc, 50 mM acetic acid buffer, 30° C., 10 minutes, 1 U = 1 μmol p-nitrophenol per minute) | BGL activity (relative value) in the presence of 8 g/L glucose when BGL activity in the absence of glucose is taken as unity [2] | BGL activity (relative value) in the presence of 20 g/L glucose when BGL activity in the absence of glucose is taken as unity [2] | Increase of absorbance (405 nm) ([1]; cell-free extract, volume reduced to one-twelfth by ultrafilter membrane, detection limit 0.075)
1 | B1 | 3.50 U per 1 mg of protein |  |  | 
2 | B2 |  | 1.49 | 0.94 | 
3 | B3 |  | 0.46 | 0.20 | 
4 | B4 |  | 0.71 | 0.70 | 0.307
